Laboratory results reported in a protein production outcome set (Wang et al. 2014).

experiment: label from the status in PepcDB records

Row | Sequence | protein production
1 | MGSSHHHHHHENLYFQGTSVMITENQSVNAKGKYEKMNRLYDTNKLHQYYSGPSYELTNVSGQSQGYYDSNVLLFNQQNQKFQVFLLGKDENKYKEKTHGLDVFAVPELVDLDGRIFSVSGVTKKNVKSIFESLRTPNLLVKKIDDKDGFSIDEFFFIQKEEVSLKELDFKIRKLLIKKYKLYEGSADKGRIVINMKDENKYEIDLSDKLDFERMADVINSEQIKNIEVNLK | not failed
2 | MGSSHHHHHHSSGLVIRGSHMRIALMQHTARPLDPQHNLDLIDDAAARASEQGAQLLLTPELFGFGYVPSQICAQVSAEQVDAARSRLRGIARDRGIALVWSLPGPEGPEQRGITAELADEHGEVLASYQKVQLYGPEEKAAFVPGEQPPPVLSWGGRQLSLLVCYDVEFPEMVRAAAARGAQLVLVPTALAGDETSVPGILLPARAVENGITLAYANHCGPEGGLVFDGGSVVVGPAGQPLGELGVEPGLLVVDLPDQSQDAGSDSADYLQDRRAELHRNWL | not failed
3 | MGSSHHHHHHSSGRENLYFQGHMAATAREDGASGQERGQRGCEHYDRGCLLKAPCCDKLYTCRLCHDNNEDHQLDRFKVKEVQCINCEKIQHAQQTCEECSTLFGEYYCDICHLFDKDKKQYHCENCGICRIGPKEDFFHCLKCNLCLAMNLQGRHKCI | not failed
4 | MGSTRKGMLNVLIAAVLWGSSGVCAQYIMEQSQMSSQFLTMTRLIFAGLILLTLSFVHGDKIFSIINNHKDAISLLIFSVVGALTVQLTFLLTIEKSNAATATVLQFLSPTIIVAWFSLVRKSRPGILVFCAILTSLVGTFLLVTHGNPTSLSISPAALFWGIASAFAAAFYTTYPSTLIARYGTLPVVGWSMLIGGLILLPFYARQGTNFVVNGSLILAFFYLVVIGTSLTFSLYLKGAQLIGGPKASILSCAEPLSSALLSLLLLGITFTLPDWLGTLLILSSVILISMDSRRRARKINRPARHK | failed
5 | MGSVPMGHKRISFHIVQTTRSGDRSASRTSVEEASDQGPSPWTTADSAIFQLRWSCVWRRAVSTSANIEDGADAAFVASPPPFGAGVADLYQALLVPILFEPYALEMAIVAERSKPVSVLEVAAGTGALTRALRAKLDPAAEIVATDLSQAMIDVGAPSVTMSRTHWMHADAQDLPFAPLMFDLVVCQFGVMFFPDKPKAYHEAKRVLRSGGRLLFSTWDSLAANDFARCVDECLTGLFPSDPPDFLGRLPYSYFDPSLIKAEVSSAGFKAVSCERLELASIAATSQDVATAFCRGTPLSGEIEWRAPERMSEIVDEVAERVASRYGARPCGSMSALVVSGRAP | failed
6 | MGSVSNQQFAGGCAKAAEEAPEEAPEDAARAADEPQLLHGAGICKWFNVRMGFGFLSMTARAGVALDPPVDVFVHQSKLHMEGFRSLKEGEAVEFTFKKSAKGLESIRVTGPGGVFCIGSERRPKGKSMQKRRSKGDRCYNCGGLDHHAKECKLPPQPKKCHFCQSISHMVASCPLKAQQGPSAQGKPTYFREEEEEIHSPTLLPEAQN | failed
7 | MGSVSTGNAGSGTVGTSTTSRADVMTFQPSSLPVSYVGETYNVQVGVTGGVGPYGYRLTAGTLPPGLKFAGGALSGTPTKAGSYSFAIQATDANLSTRVQEYTMNVDALPPLALKPTLPPGEIRGETRIPVTIQAPRAVRAARLSWDLGKDVQVTRVQPADAGSVVFWQQRGSVLTVDLGFRTVPRPDARIALITVKPAKAVTLKADALGYEARDGSGKMLVDKKRPGSEPVKPAEQPGDPKVDPKAADQKATDQKATDPKTVDPKTVTPADTVEGGPLPSPALPTPSLPPTLPPVTTPPANTPPVPTPTPPANQPAPAPAPQPAPAPQPTPPSGTGGALEHHHHHH | failed
8 | MGTALVYHEDMTATRLLWDDPECEIECPERLTAALDGLRQRGLEERCLCLSACEASEEELGLVHSPEYIALVQKTQTLDKEELHALSKQYDAVYFHPDTFHCARLAAGAALQLVDAVLTGAVHNGLALVRPPGHHSQRAAANGFCVFNNVALAAKHAKQKYGLQRILIVDWDVHHGQGIQYIFNDDPSVLYFSWHRYEHGSFWPFLPESDADAVGQGQGQGFTVNLPWNQVGMGNADYLAAFLHVLLPLAFEFDPELVLVSAGFDSAIGDPEGQMQATPECFAHLTQLLQVLAGGRICAVLEGGYHLESLAQSVCMMVQTLLGDPTPPLLGLMVPCQSALESIQSVQTAQTPYWTSLQQNVAPVLSSSTHSPEERSLRLLGESPTCAVAEDSLSPLLDQLCLRPAPPICTAVASTVPGAALCLPPGVLHQEGSVLREETEAWARLHKSRFQDEDLATLGKILCLLDGIMDGQIRNAIATTTALATAATLDVLIQRCLARRAQRVLCVALGQLDRPLDLADDGRILWLNIRGKDAAIQSMFHFSTPLPQTTGGFLSLILGLVLPLAYGFQPDMVLMALGPAHGLQNAQAALLAAMLRSPVGGRILAVVEEESIRLLARSLAQALHGETPPSLGPFSKATPEEIQALMFLKARLEARWKLLQVAAPPP | failed
9 | MGTARTLTAAGGEPAFRGNDRLLLGIILGVLTFWLFAQTTLNIAPDMRRDLGTGESLMNIAVALTALFSGIFIVVMGGLADRVGRVRMVRLGFLASIAGSLLVGLAPAGGLAVAFLLAGRALQGLSGACIMPASLALVKAYWDGAERQRAISLWSIGSWGGSGVCSLFGGLVTQHLGWRWIFFASVLVAIAGLLLLRGTPESRAEGGAADYRFDLAGVLTFMVAMVALQVVVTQGNQLGWTSPASLGLVAATIVFGWLFLRIERRARSPFIDFGLFRSPTYTGATISNFLLNGVAGTLIVSLQLVQVGGGMSAQRAGVLTLGYAVAIIAFIRVGEKLLRRFGARRPMLWGCAITGASILLLAPSNVMLARYEVMAVIGYTLFGVGLAFYATPSTDAALSNLPASQAGAGSGLYKMASSLGAAFGVAISAAIFTALRAAPQSVSWLEGVITFQGRQDNLAVREAAIIALGFNELMVVVAIVSIVLTIPEGERRQGA | failed
10 | MGTLGRAIYTVGNWIRGTGQALDRVGSLLQGSHRIEEHLSRHRTLMNVFDKSPLVDKDVFVAPSASVIGDVQIGKGSSIWYGCVLRGDVNNISVGSGTNIQDNTLVHVAKTNISGKVLPTLIGDNVTVGHSAVIHGCTVEDDAFVGMGATLLDGVVVEKHAMVAAGSLVKQNTRIPSGEVWGGNPAKFMRKLTDEEIVYISQSAKNYINLAQIHASENSKSFEQIEVERALRKKYARKDEDYDSMLGITRETPPELILPDNVLPGGKPVAKVPSTQYF | failed
11 | MGTSKYSPEFRADAVALYHASPGGTYASVAKDLGVNHETLRTWVRDAEQAGRPGAVEATAMDKENRQLRARVKELELEREILRRAAKYFAAETSWLEHHHHHH | not failed
12 | MGTSSDPIQDGSDEQQKRSEIYTYEAPWHIYAMNWSVRRDKKYRLAITSLLEQYPNRVEIVQLDESNGEIRSDPNLSFEHPYPPTKTIFIPDKECQRPDLLATSSDFLRLWRIADDHSRVELKSCLNSNKNSEFCGPLTSFDWNEAEPRRIGTSSTDTTCTIWDIEREAVDTQLIAHDKEVFDIAWGGVGVFASVSADGSVRVFDLRDKEHSTIIYESSEPDTPLVRLGWNKQDPRYMATIIMDSAKVVVLDIRFPALPVVELQRHQASVNAIAWAPHSSCHICTAGDDSQALIWDISSMGQHVEGGLDPILAYTAGAEIEQLQWSSSQPDWVAIAFSTKLQILRV | failed
13 | MGTTEKSGIKEIIIQGLTRAGKPFRPSDWVDRMCSTYASFGADRKLRYSPYLKPRVIEGVRCLAVDLKLKDTNPEGFNQLMHFATENQLNILDAEGNSIDAAQVTEI | not failed
14 | MGVANLRVMHYVHKDKAFAYWSCTCVYAPESRYCSEEHKKMALAEREYELPHNFANVHLHTNMEDLVLPKIISYLRDPQLGIIEIPNLQYIDDVFNVTPTEQPDMFSTNLDEREEFNIWLFMMIS | failed
15 | MGVDMELKVEASLREARTLLAAKQYSQAANVAHSLFCTCHKFNLQIEKASVLLLLAEIHKKSGNAVLGLPYALASISFCQSFNLDLLKASATLTLAELWLGLGSNHTKRALDLLHGAFPMILGHGGLELRARAYIFEANCYLSDPSSSVSTDSDTVLDSLRQASDELQALEYHELAAEASYLMAMVYDKLGRLDEREEAASLFKKHIIALENPQDVEQNMA | failed
16 | MGVDNFSTTKKMFTWEVPGERVITLMTAGNLATTQALISLLEERSKTPSERSPSILERPTMFEVARLVGATLKEVIADTAGTGQVASSQFKASVIVGGQVKGGLPTLFLIYPEGNFIEVTEDSPFFQIGEAKYGKPILVRAYDPDLSFEDTIRLLMVSFDSTIKANLSVGLPLDLQVYANDSFAIKEQSRVEADDAYFQSISERWGDALRKALSDLPPYKSLLEHHHHHH | failed
